{
  "source": "patent US20170315124A1",
  "about": "(ATTOGEN BIOMEDICAL SUZHOU, published 2017)",
  "binders": {"B1": {"name": "anti-HPV16 E7 monoclonal antibody 7B6 (antibody, V domains shown)", "VH": "VKLQESGPELVKPGASMKISCKASGYSFTGSTMNWVKQSHGKNLEWIGLIDPYNGVIRYNQKFKGRATLTIDKSSSTAYMELLSLTSDDSAVYYCARKLRYWGQGTTLTVSS", "VL": "ATQSPSSLNVSPGEKVTMSCKSSQSLLNSGNQRNYLAWYQQKPGQPPKLLIYGASTRESGVPDRFTGSGSGTDFTLTISSVQAEDLAVYYCQNDLSYPLTFGAGTKLELK", "notes": "also called mAb anti-HPV16E7 7B6"}},
  "key": {"polypeptide HPV16 E7-1": {"target": "T1, polypeptide HPV16 E7-1 (HPV16)", "T1 peptide": "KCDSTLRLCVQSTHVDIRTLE", "assay": "indirect ELISA on coated peptide"}, "[1]": {"target": "T2, His-HPV16 E7 recombinant fusion protein (HPV16, UniProt P03129 2-98)", "T2 construct": "also called recombinant protein HPV16 E7; not shown: His tag", "T2 sequence": "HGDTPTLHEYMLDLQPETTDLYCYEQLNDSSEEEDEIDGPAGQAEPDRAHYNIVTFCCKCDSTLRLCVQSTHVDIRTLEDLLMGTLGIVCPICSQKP", "assay": "indirect ELISA, method of Beatty et al.; His-HPV16 E7 coated at 4 concentrations, 7B6 in 8 two-fold dilutions from 2 µg/ml; mean of 6 K values"}, "[2]": {"target": "T3, GST-HPV16 L2 fusion protein (HPV16, UniProt P03107 1-473)", "T3 construct": "Specificity control antigen in the ELISA; also called recombinant protein HPV16 L2; not shown: glutathione S-transferase (GST) fusion partner", "T3 sequence": "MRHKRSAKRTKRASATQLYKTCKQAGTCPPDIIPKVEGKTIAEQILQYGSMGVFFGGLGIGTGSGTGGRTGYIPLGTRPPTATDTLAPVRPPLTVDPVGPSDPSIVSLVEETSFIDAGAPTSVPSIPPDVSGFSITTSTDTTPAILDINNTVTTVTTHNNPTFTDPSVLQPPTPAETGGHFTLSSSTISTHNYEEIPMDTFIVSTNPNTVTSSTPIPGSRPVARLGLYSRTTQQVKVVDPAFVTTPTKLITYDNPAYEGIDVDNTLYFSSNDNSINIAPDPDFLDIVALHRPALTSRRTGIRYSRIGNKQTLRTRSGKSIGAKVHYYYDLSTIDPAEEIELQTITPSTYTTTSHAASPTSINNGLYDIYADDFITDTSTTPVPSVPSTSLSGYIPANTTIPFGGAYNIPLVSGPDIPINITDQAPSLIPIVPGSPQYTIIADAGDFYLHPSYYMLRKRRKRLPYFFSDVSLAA", "assay": "indirect ELISA on coated antigen"}, "[3]": {"target": "T2, His-HPV16 E7 recombinant fusion protein", "assay": "indirect ELISA, method of Beatty et al.; reference 1H11"}, "[4]": {"target": "T2, His-HPV16 E7 recombinant fusion protein", "assay": "indirect ELISA, method of Beatty et al.; reference 2G7", "description": "There were total 8 gradients and then ELISA test was conducted. The obtained values were plot into Kaff=(n−1)/2(n [Ab′]−[Ab]) to obtain the affinity constant. […] It means using the antibody concentration corresponding to half of the highest OD value (50% OD) on the curve through graphing method. In this equation, n=Ag/Ag′. Then each two of them were compared, when n=4, three K values could be obtained, when n=16, two K values could be obtained and when n=64, one K values could be obtained then calculate the average of these six values as the result."}},
  "data": [
    {"binder": "B1", "values": [
      {"measurement": "binding result", "setting": "polypeptide HPV16 E7-1", "value": "no binding"},
      {"measurement": "Kd", "setting": "[1]", "value": 0.64, "unit": "nM"},
      {"measurement": "binding result", "setting": "[2]", "value": "no binding (tested: 7B6 1 µg/ml; antigen coated at 2 µg/ml)"},
      {"measurement": "fold of binding affinity over 1H11", "setting": "[3]", "value": 5, "unit": "fold"},
      {"measurement": "fold of binding affinity over 2G7", "setting": "[4]", "value": 2, "unit": "fold"}
    ]}
  ]
}
